The target in assay [1] is T1, GPC3 peptide, amino acid position 461-490 (SEQ ID NO: 24) (human).
T1 construct: synthetic 30-residue peptide of GPC3
T1 peptide: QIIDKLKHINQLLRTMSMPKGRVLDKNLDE
In words: ELISA on immobilised peptide. On the procedure: (§1) In order to identify more detailed epitopes for the antibodies, the amino acid sequence of GPC3 was divided into peptides of 30 residues containing 10-residue overlaps, and the corresponding peptides were synthesized (SEQ ID NOs: 1 to 29 in Table 2). Each peptide thus synthesized was dissolved at a concentration of 1 mg/mL in dimethyl sulfoxide and then diluted to 1 μg/mL with PBS. The diluted peptide solution was added at 70 μL/well to a 96-well plate and immobilized thereon at room temperature for 1 hour. After removal of unimmobilized peptides, 20% Blocking-one (Nacalai Tesque, Inc.) was added thereto as a blocking buffer solution at 200 μL/well, and the plate was blocked overnight. After removal of the blocking buffer solution, each well was washed with TBS-T three times, and each antibody diluted to 2 μg/mL with a blocking buffer was then added thereto at 70 μL/well. One hour later, the antibody was removed, and each well was washed three times by the addition of TBS-T at 200 μL/well. An HRP-bound anti-mouse antibody was added at 70 μL/well to each well and reacted therewith for 1 hour. After removal of the antibody, each well was washed with 200 μL/well of TBS-T three times, and a chromogenic reagent ABTS Peroxidase Substrate System (1 component, KPL, Kirkegaard & Perry Laboratories, Inc.) was then added thereto at 70 μL/well and reacted at room temperature for […] to develop color. The reaction was terminated by the addition of 1% SDS at 70 μL/well, and the absorbance at 405 nm was measured using a plate reader.

In assay [2] the target is T2, GPC3 peptide, amino acid position 121-150 (SEQ ID NO: 7) (human).
T2 construct: synthetic 30-residue peptide of GPC3
T2 peptide: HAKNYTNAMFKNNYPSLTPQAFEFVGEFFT
In words: ELISA on immobilised peptide. As to the method:
as §1
Background: In an ELISA, binding on a coated surface is turned into a signal by an enzyme label.

Assay [3] concerns the target T3, GPC3 peptide, amino acid position 301-330 (SEQ ID NO: 16) (human).
T3 construct: synthetic 30-residue peptide of GPC3
T3 peptide: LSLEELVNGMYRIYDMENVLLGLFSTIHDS
In words: ELISA on immobilised peptide. As to the method:
as §1

Assay [4] deals with T4, GPC3 peptide, amino acid position 41-70 (SEQ ID NO: 3) (human).
T4 construct: synthetic 30-residue peptide of GPC3
T4 peptide: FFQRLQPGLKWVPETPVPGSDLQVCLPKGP
In words: ELISA on immobilised peptide. As to the method: as §1

Assay [5] concerns the target T5, GPC3 peptide, amino acid position 501-530 (SEQ ID NO: 26) (human).
T5 construct: synthetic 30-residue peptide of GPC3
T5 peptide: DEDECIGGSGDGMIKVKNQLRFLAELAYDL
In words: ELISA on immobilised peptide. On the procedure: as §1

The target of assay [6] is T6, GPC3 peptide, amino acid position 181-210 (SEQ ID NO: 10) (human).
T6 construct: synthetic 30-residue peptide of GPC3
T6 peptide: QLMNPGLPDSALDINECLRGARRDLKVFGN
In words: ELISA on immobilised peptide. As to the method: as §1

The target in assay [7] is T7, GPC3 peptide, amino acid position 541-570 (SEQ ID NO: 28) (human).
T7 construct: synthetic 30-residue peptide of GPC3
T7 peptide: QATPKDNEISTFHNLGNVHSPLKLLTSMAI
In words: ELISA on immobilised peptide. As to the method:
as §1

Assay [8] deals with T8, GPC3 peptide, amino acid position 61-90 (SEQ ID NO: 4) (human).
T8 construct: synthetic 30-residue peptide of GPC3
T8 peptide: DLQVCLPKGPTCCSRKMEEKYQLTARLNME
In words: ELISA on immobilised peptide. As to the method:
as §1

Assay [9] concerns the target T9, GPC3 peptide, amino acid position 441-470 (SEQ ID NO: 23) (human).
T9 construct: synthetic 30-residue peptide of GPC3
T9 peptide: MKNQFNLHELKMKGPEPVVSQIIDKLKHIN
In words: ELISA on immobilised peptide. As to the method:
as §1

Assay [10] deals with T10, AW5, C-terminally His-tagged recombinant product of positions 1 to 357 of GPC3 (human, UniProt P51654 25-357).
T10 construct: Expressed in CHO cells; cell pellets used in reducing Western blot; Construct is stated from position 1; also called AW5 (1-357); not shown: C-terminal His tag
In words: Western blot of CHO cell pellets, reducing. For orientation: Immunoblotting shows a protein as a band on a membrane.

T10 sequence (P51654 25-357): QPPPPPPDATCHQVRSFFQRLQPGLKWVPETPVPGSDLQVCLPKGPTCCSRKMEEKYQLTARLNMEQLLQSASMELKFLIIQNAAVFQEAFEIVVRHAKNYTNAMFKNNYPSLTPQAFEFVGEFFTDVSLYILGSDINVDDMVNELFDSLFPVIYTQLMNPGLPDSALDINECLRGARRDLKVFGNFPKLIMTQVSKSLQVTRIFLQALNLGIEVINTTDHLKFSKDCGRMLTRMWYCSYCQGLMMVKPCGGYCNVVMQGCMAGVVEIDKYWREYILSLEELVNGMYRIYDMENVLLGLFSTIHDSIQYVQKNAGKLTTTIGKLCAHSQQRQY

B1: GT165 antibody (antibody, IgG1, V domains shown)
VH: QVQLQQSGAELVGPGASVKISCKAFGYTFTNHHINWVKQRPGQGLDWIGYINPYNDYTNYNQKFKGKATLTVDKSSSTAYMELSSLTSEDSAVYYCARSDPAWFAYWGQGTLVTVSA
VL: DIQMTQSPSSLSASLGGKVTITCKASQDINKNIAWYQHKPGKGPRLLIWYTYTLQPGIPSRFSGSGSGRDYSFSISNLEPEDIATYYCLQYDNLPFTFGTGTKLEIKR
As for B1, the binding result in assay [1], in assay [2], in assay [3], in [4], in [5] and in assay [6] was “no binding (tested: 2 µg/mL)” throughout. The binding result in assay [7] is given as “no binding (tested: 2 µg/mL)”; in assay [8], “no binding (tested: 2 µg/mL)”; in [9] it was “no binding (tested: 2 µg/mL)”; in assay [10], “no binding”.

B2: GT607 antibody (antibody, IgG1, V domains shown)
VH: EVQLVESGGDVVRPGGSLKLSCAASGFTFSSYGMSWVRQLPDKRLEWVASVGNGGSYRYYPENLKGRFTISRDNTKNTLYLQISGLKSEDTAIYYCARRGAFPYFDVWGAGTTVTVSS
VL: QIVLTQSPAIMSASPGEKVTLACSASSSVTYMHWYQQKSGTSPKRWIYETSKLASGVPPRFSGSGSGTSYSLTISTMEAEDAATYYCQQWSSNPLTFGAGTKLELKR
Take B2: the binding result in [1], in assay [2], in assay [3], in [4], in [5] and in assay [6] was “no binding (tested: 2 µg/mL)” each time. The binding result in assay [7], in [8] and in assay [9] was “no binding (tested: 2 µg/mL)” each time.

B3: GT114 antibody (antibody, IgG1, V domains shown)
VH: DVQLQESGPGLVKPSQSLSLTCTVTGYSITSDSAWNWIRQFPGNKLEWMAYIMYSGITSYNPSLKSRISITRDTAKNQFFLQLNSVTTEDSATYYCSRGYWYFDVWGAGTTVTVSS
VL: QIVLTQSPAIMSASLGEEITLTCSASSSVSYMHWYQQKSGTSPKLLIYSTSILASGVPSRFSGSGSGTFYSLTISSVEAEDAADYYCLQWITYRTFGGGTKLEIKR
Consider B3, for which the binding result in assay [1], in assay [2], in [3], in assay [4], in assay [5] and in assay [6] was “no binding (tested: 2 µg/mL)” in each case. For the same molecule, the binding result in assay [7], in [8] and in [9] was “no binding (tested: 2 µg/mL)” throughout.

Source of the values: patent US20170010270A1 (Chugai, published 2017).
